According to publication PMC7690628 (Pharmaceuticals, 2020):

What was measured:
[1] = target: CYP3A4 (Homo sapiens, UniProt P08684); test: biochemical
[2] = substrate: O=C(CCc1ccc(O)cc1)c1c(O)cc(O)cc1O; test: purified protein; conditions: heme

CYP3A4, sequence (P08684 2-503): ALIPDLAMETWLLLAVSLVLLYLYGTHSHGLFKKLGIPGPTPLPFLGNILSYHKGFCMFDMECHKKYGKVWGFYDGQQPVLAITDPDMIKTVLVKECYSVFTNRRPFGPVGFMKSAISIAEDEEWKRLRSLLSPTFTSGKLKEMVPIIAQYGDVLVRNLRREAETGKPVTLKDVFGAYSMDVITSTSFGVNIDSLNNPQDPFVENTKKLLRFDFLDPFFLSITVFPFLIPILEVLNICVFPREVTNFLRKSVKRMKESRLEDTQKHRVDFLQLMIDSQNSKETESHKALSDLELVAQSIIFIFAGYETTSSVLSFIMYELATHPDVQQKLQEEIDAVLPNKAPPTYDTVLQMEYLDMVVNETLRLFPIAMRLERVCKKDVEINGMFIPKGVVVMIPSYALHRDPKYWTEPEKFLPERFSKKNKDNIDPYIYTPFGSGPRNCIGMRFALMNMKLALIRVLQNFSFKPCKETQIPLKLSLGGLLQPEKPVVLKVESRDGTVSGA
CYP3A4, sequence (P00388 2-678 partner): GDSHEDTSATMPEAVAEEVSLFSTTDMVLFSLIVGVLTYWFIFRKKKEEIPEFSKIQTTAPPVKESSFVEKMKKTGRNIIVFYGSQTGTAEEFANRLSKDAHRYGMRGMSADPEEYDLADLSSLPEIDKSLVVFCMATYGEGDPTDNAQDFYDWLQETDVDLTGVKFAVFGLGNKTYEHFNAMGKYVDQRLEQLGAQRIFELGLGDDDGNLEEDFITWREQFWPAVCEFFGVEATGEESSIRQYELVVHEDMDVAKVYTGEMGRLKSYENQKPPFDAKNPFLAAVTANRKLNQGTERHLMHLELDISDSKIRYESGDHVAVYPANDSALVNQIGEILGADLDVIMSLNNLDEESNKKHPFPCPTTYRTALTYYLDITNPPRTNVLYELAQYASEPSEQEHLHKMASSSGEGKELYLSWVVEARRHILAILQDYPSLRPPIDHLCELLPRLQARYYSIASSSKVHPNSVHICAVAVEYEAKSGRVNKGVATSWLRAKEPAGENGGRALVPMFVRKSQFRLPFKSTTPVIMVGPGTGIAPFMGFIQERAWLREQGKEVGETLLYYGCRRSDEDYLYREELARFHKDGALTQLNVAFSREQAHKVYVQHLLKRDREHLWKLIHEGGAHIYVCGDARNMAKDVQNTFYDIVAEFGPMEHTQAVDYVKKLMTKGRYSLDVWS

Row | IC50 [1] | Molecule | Km [2] | kcat [2] | kcat/Km [2]
1 | 13 µM | O=C(CCc1ccc(O)cc1)c1c(O)cc(O)cc1O [phloretin, 3-(4-hydroxyphenyl)-1-(2,4,6-trihydroxyphenyl)propan-1-one] |  |  | 
2 |  | CYP2C19 (Homo sapiens) (protein) MDPFVVLVLCLSCLLLLSIWRQSSGRGKLPPGPTPLPVIGNILQIDIKDVSKSLTNLSKIYGPVFTLYFGLERMVVLHGYEVVKEALIDLGEEFSGRGHFPLAERANRGFGIVFSNGKRWKEIRRFSLMTLRNFGMGKRSIEDRVQEEARCLVEELRKTKASPCDPTFILGCAPCNVICSIIFQKRFDYKDQQFLNLMEKLNENIRIVSTPWIQICNNFPTIIDYFPGTHNKLLKNLAFMESDILEKVKEHQESMDINNPRDFIDCFLIKMEKEKQNQQSEFTIENLVITAADLLGAGTETTSTTLRYALLLLLKHPEVTAKVQEEIERVIGRNRSPCMQDRGHMPYTDAVVHEVQRYIDLIPTSLPHAVTCDVKFRNYLIPKGTTILTSLTSVLHDNKEFPNPEMFDPRHFLDEGGNFKKSNYFMPFSAGKRICVGEGLARMELFLFLTFILQNFNLKSLIDPKDLDTTPVVNGFASVPPFYQLCFIPV | 208 ± 50 µM | 0.0967 s⁻¹ | 467 M⁻¹ s⁻¹
